Test results: patent US20260226176A1 (THERANOVIR, published 2026)

Legend:
[1] = molecular target: Core histone macro-H2A.1 (human) (UniProt O75367); assay: co-IP from A549 WT lysate, LC-MS/MS, peak area against isotype IP
DNA ligase 3 (human) [2] = molecular target: DNA ligase 3 (human) (UniProt P49916); assay: as above
[3] = molecular target: DNA mismatch repair protein Msh2 (human) (UniProt P43246); assay: as above
[4] = molecular target: DNA topoisomerase 2-alpha (human) (UniProt P11388); assay: as above
[5] = molecular target: FACT complex subunit SPT16 (human) (UniProt Q9Y5B9); assay: as above
Histone H2A.Z (human) [6] = molecular target: Histone H2A.Z (human) (UniProt P0C0S5); assay: as above
Histone H3.1 (human) [7] = molecular target: Histone H3.1 (human) (UniProt P68431); assay: as above
[8] = molecular target: Poly [ADP-ribose] polymerase 1 (human) (UniProt P09874); assay: as above
[9] = molecular target: Poly [ADP-ribose] polymerase 2 (human) (UniProt Q9UGN5); assay: as above
[10] = molecular target: Replication protein A 70 kDa DNA-binding subunit (human) (UniProt P27694); assay: as above
[11] = molecular target: Werner syndrome ATP-dependent helicase (human) (UniProt Q14191); assay: as above
[12] = molecular target: X-ray repair cross-complementing protein 5 (human) (UniProt P13010); assay: as above
[13] = molecular target: X-ray repair cross-complementing protein 6 (human) (UniProt P12956); assay: as above
[14] = molecular target: Core histone macro-H2A.1 (human) (UniProt O75367); assay: co-IP from CTC41.5E lysate, LC-MS/MS, peak area against isotype IP
DNA ligase 3 (human) [15] = molecular target: DNA ligase 3 (human) (UniProt P49916); assay: as above
[16] = molecular target: DNA mismatch repair protein Msh2 (human) (UniProt P43246); assay: as above
[17] = molecular target: DNA mismatch repair protein Msh6 (human) (UniProt P52701); assay: as above
[18] = molecular target: DNA repair protein complementing XP-C cells (human) (UniProt Q01831); assay: as above
[19] = molecular target: DNA topoisomerase 1 (human) (UniProt P11387); assay: as above
[20] = molecular target: DNA topoisomerase 2-alpha (human) (UniProt P11388); assay: as above
[21] = molecular target: DNA topoisomerase 2-beta (human) (UniProt Q02880); assay: as above
[22] = molecular target: DNA-dependent protein kinase catalytic subunit (DNA-PK) (human) (UniProt P78527); assay: as above
[23] = molecular target: DNA-directed RNA polymerase I subunit RPA1 (human) (UniProt O95602); assay: as above
[24] = molecular target: FACT complex subunit SPT16 (human) (UniProt Q9Y5B9); assay: as above
Histone H2A.Z (human) [25] = molecular target: Histone H2A.Z (human) (UniProt P0C0S5); assay: as above
Histone H3.1 (human) [26] = molecular target: Histone H3.1 (human) (UniProt P68431); assay: as above
[27] = molecular target: Poly [ADP-ribose] polymerase 1 (human) (UniProt P09874); assay: as above
[28] = molecular target: Poly [ADP-ribose] polymerase 2 (human) (UniProt Q9UGN5); assay: as above
[29] = molecular target: Replication protein A 70 kDa DNA-binding subunit (human) (UniProt P27694); assay: as above
[30] = molecular target: SWI/SNF-related matrix-associated actin-dependent regulator of chromatin subfamily A member 5 (human) (UniProt O60264); assay: as above
[31] = molecular target: Sister chromatid cohesion protein PDS5 homolog B (human) (UniProt Q9NTI5); assay: as above
[32] = molecular target: UV excision repair protein RAD23 homolog B (human) (UniProt P54727); assay: as above
[33] = molecular target: Werner syndrome ATP-dependent helicase (human) (UniProt Q14191); assay: as above
[34] = molecular target: X-ray repair cross-complementing protein 5 (human) (UniProt P13010); assay: as above
[35] = molecular target: X-ray repair cross-complementing protein 6 (human) (UniProt P12956); assay: as above

B1: variant 4 of a-NRP1_LEP n° 1 (antibody, V domains shown)
VH: EVQLVESGGGLVQPGGSLRLSCAASGFTFSSFGMHWVRQAPGKGLEWVAYISSGSSTIHYADSVKGRFTISRDNAKNSLYLQMNSLRAEDTAMYYCARRHYGSSRYWYFDVWGQGTTVTVSS
VL: EIVLTQSPATLSLSPGERATLSCRASQSVKSYLAWYQQKPGQAPRLLIYYASSRATGIPARFSGSGSGTDFTLTISSLEPEDFAVYYCQQYSESPYTFGQGTKLEIK
notes: humanized variant of 21B10; isotype control hIgG4; also called variant 4 a-NRP1_LEP; variant n°4 a-NRP1_LEP
Ratio Area V4/IgG4 [1]: 1130
Ratio Area V4/IgG4 (DNA ligase 3 (human) [2]): 78.8
Ratio Area V4/IgG4 [3]: 1
Ratio Area V4/IgG4 [4]: 1440
Ratio Area V4/IgG4 [5]: 6030
Ratio Area V4/IgG4 (Histone H2A.Z (human) [6]): 22
Ratio Area V4/IgG4 (Histone H3.1 (human) [7]): 82.5
Ratio Area V4/IgG4 [8]: 546
Ratio Area V4/IgG4 [9]: 259
Ratio Area V4/IgG4 [10]: 2
Ratio Area V4/IgG4 [11]: 540
Ratio Area V4/IgG4 [12]: 2.3
Ratio Area V4/IgG4 [13]: 1.9
Ratio Area V4/IgG4 [14]: 8780
Ratio Area V4/IgG4 (DNA ligase 3 (human) [15]): 7770
Ratio Area V4/IgG4 [16]: 335
Ratio Area V4/IgG4 [17]: 813
Ratio Area V4/IgG4 [18]: 480
Ratio Area V4/IgG4 [19]: 6880
Ratio Area V4/IgG4 [20]: 538
Ratio Area V4/IgG4 [21]: 50.1
Ratio Area V4/IgG4 [22]: 10.5
Ratio Area V4/IgG4 [23]: 785
Ratio Area V4/IgG4 [24]: 5490
Ratio Area V4/IgG4 (Histone H2A.Z (human) [25]): 624
Ratio Area V4/IgG4 (Histone H3.1 (human) [26]): 304
Ratio Area V4/IgG4 [27]: 709
Ratio Area V4/IgG4 [28]: 1
Ratio Area V4/IgG4 [29]: 13.6
Ratio Area V4/IgG4 [30]: 589
Ratio Area V4/IgG4 [31]: 12.5
Ratio Area V4/IgG4 [32]: 307
Ratio Area V4/IgG4 [33]: 759
Ratio Area V4/IgG4 [34]: 38.7
Ratio Area V4/IgG4 [35]: 58.8
